In the supplement of paper PMC9170038:

What was measured:
[1] = tested on: MS2 coat protein; experiment: apparent KD of MS2 coat protein, switch ON state; designed switch direction (-1 OFF switch, 1 ON switch): -1; higher = weaker reporter binding; conditions: FMN input: 0 or 200 uM; Eterna round: R93 (includes R88 designs)
How it was run: (§1)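 On-chip transcription from Illumina sequencing clusters produced the designed RNA switches. These were titrated with SNAP-549-labelled MS2 coat protein (twofold steps, 0.7 or 1.5 nM to 3 µM) in 100 mM Tris-HCl pH 7.5, 80 mM KCl, 4 mM MgCl2, with or without constant ligand. The apparent KD given is the per-design median of normalised cluster binding-curve fits.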

[2] = tested on: MS2 coat protein; experiment: apparent KD of MS2 coat protein, switch OFF state (with FMN for OFF switches, without FMN for ON switches); designed switch direction (-1 OFF switch, 1 ON switch): -1; higher = weaker reporter binding; conditions: FMN input: 0 or 200 uM; Eterna round: R93 (includes R88 designs)
How it was run: as §1

Row | Sequence | apparent KD of MS2 coat protein [1] [nM] | apparent KD of MS2 coat protein [2] [nM]
1 | AAAAAGCGAGGAUAUACAUGAGGAUCACCCAUGUAAAAAAAAAAAAAGGGAAAAAAAAGUAGAAGGCGCAAAAA [Sekhemraneferkhau Wepwawetemsaf] | 43.2 | 48.7
2 | AAAAAGCGAGGAUAUACAUGAGGAUCACCCAUGUCAAAAAAAUAGAAAAAAAUAAAAAGUAGAAGGCGCAAAAA [Ex 3 #1] | 75.8 | 63.6
3 | AAAAAGGCAGGAUAUACAUGAGGAUCACCCAUGUAAAGAAAGAAAGAAGAAAGGGAAAGUAGAAGGGCCAAAAA [Ex3 sub 1] | 34.4 | 41.2
4 | AAAAAGGCAGGAUAUACAUGAGGAUCACCCAUGUAGUUGACAAAAAAGAGUCAACAGUGUAGAAGGGCCAAAAA [Exclusion3-cac1] | 18.1 | 22.1
5 | AAAAAGGCAGGAUAUACAUGAGGAUCACCCAUGUUAAAAAAAAAAAAAAAAAAAAAGUGUAGAAGGGCCAAAAA [Default title] | 37.4 | 47.6
6 | AAAAAGGCAGGAUAUACGAAACAGGGAAACCUGAAAGGGAAACAUGAGGAUCACCCAUGUAGAAGGGCCAAGAA [Clint Eastwood 64% 2] | 48.3 | 82
7 | AAAAAGGGAGGAUAUACAGGAGGUAAGGUCAAAAAAAAAAAACAUGAGGAUCACCCAUGUAGAAGGUUUAAAAA [Ecls2-V] | 25.8 | 31
8 | AAAAAGGGAGGAUAUACAUGAGGAUCACCCAUGUAAAAAAUCGCGGGAGGGAGGGAAGGUAGAAGGCCCAAAAA [Excls3-V] | 20.1 | 15.5
9 | AAAAAGGGAGGAUAUACAUGAGGAUCACCCAUGUAAAACAAAAAAACAAAAAAAAAAAGUAGAAGGCCCAAAAA [Default title] | 30 | 24.6
10 | AAAAAGGUAGGAUAUACAUGAGGAUCACCCAUGUAAAAAAACGCAGAAAAAAACAAUUGUAGAAGGGCCAAAAA [Ex3 Malc#6] | 15.9 | 10.6
11 | AAAAAGUAAGGAUAUCUGGAUAGGAAAAAGAAAACCUAUCCAGAGAAGGUACAUGAGGAUCACCCAUGUAAAAA [Opal 30] | 20.8 | 14.1
12 | AAAAAGUGAGGAUAUACAUGAGGAUCACCCAUGUGAAAGUCGAAAAAAAAGACAAAAAGUAGAAGGCACAAAAA [Fiskers Exclusion 3 D2] | 22.7 | 30.3
13 | AAAAAGUGAGGAUAUACAUGAGGAUCACCCAUGUGUAUAAAAAAUUACACAAAAGCAUGUAGAAGGCACUAAAA [JL In the Red] | 37 | 143
14 | AAAAAGUGAGGAUAUACGAUGUGGAGUAGACACAACCAGACGUAGAAGGCACAUGAGGAUCACCCAUGUCCAAA [EX4 Malc#17] | 21 | 28.6
15 | AAAAAGUGAGGAUAUACGCUGAAGAGAAGACACAACCAGGCGUAGAAGGCACAUGAGGAUCACCCAUGUACAAA [Ex4 Malc#8] | 28.2 | 27.3
16 | AAAAAGUGAGGAUAUACGUUGAAAAAAAAAAAAAAAAAGCGGUAGAAGGCACAUGAGGAUCACCCAUGUAAAAA [Ex4 Malc#4] | 32.7 | 22.5
17 | AAAAAGUGAGGAUAUUCGGAAGGGAAAGCGCAAACCCAACCGAAGAAGGCACAUGAGGAUCACCCAUGUAAAAA [Ecls4-III 65% - Early G segment 1] | 30.6 | 35.2
18 | AAAAAGUUAGGAUAUACAUGAGGAUCACCCAUGUGCACGUAUGGAGAAUAUGGUGGUAGUAGAAGGGACAAAAA [EX2 Malc#18] | 55.3 | 66.6
19 | AAAAAUGGAGGAUAUACAUGAGGAUCACCCAUGUGAAACAAAACAAAAAACAAAAAAAGUAGAAGGCCAAAAAA [Gilly Gone Silly 3 - Jieux - Exclusion 3] | 31.2 | 40.1
20 | AAAAAUGGAGGAUAUACAUGAGGAUCACCCAUGUGUAACUAUACUAAGCACAAAAAAAGUAGAAGGCCAAAAAA [Gilly Gone Silly 9 - Jieux - Exclusion 3] | 53.5 | 57.4

Row | Sequence | apparent KD of MS2 coat protein [1] [nM] | apparent KD of MS2 coat protein [2] [nM]
21 | AAAAAUGGAGGAUAUACAUGAGGAUCACCCAUGUGUGGCCAUACUAUGUGGUCGUCAGGUAGAAGGCCAAAAAA [Gilly Gone Silly 23 - Jieux - Exclusion 3] | 24.9 | 178
22 | AAAAAUUGAGGAUAUACGAACAUGUCGAAAGACGUGAAGGGACAUGAGGAUCACCCAUGUAGAAGGCGAAAGAA [Mat - Exclusion 2 - JL mod - D67] | 33.6 | 18.2
23 | AAAACAAAAGGAUAUAAAAACAAAAGUCAGGAUAUAGGAAACUAGAAGGGACAUGAGGAUCACCCAUGUAAAAC [Meechl Ex4 R2 m3] | 55.9 | 44.5
24 | AAAACGCUAGGAUAUACAAAAAAAAAGGGAAAAAAAAAGGGACAUGAGGAUCACCCAUGUAGAAGGAGCAAAAA [Diamond 87] | 68.5 | 108
25 | AAAACGGCAGGAUAUACAGAUGAGAACUCGACCGAAAAAAAACAUGAGGAUCACCCAUGUAGAAGGGCCAAAAA [Ex2 Malc#6] | 30.1 | 61.9
26 | AAAACGGCAGGAUAUACAGAUGAGAUCUCGACCGAAAAAAAACAUGAGGAUCACCCAUGUAGAAGGGCCAAAAA [Ex2 Malc#5] | 30.1 | 60.9
27 | AAAACGGCAGGAUAUACAGUUGAGAACUAGACCGAAAAAAAACAUGAGGAUCACCCAUGUAGAAGGGCCAAAAA [Ex2 Malc#8] | 28.4 | 32.5
28 | AAAACGGUAGGAUAUACAAUUGGGAACUAGACCGAAAAACCACAUGAGGAUCACCCAUGUAGAAGGGCCAAAAA [Ex2 Malc#12] | 39.2 | 77.6
29 | AAAACGGUAGGAUAUACGAUUUGGAACUAGACCGAGGAACCACAUGAGGAUCACCCAUGUAGAAGGACCAAAAA [EX2 Malc#18] | 11.9 | 10.7
30 | AAAACGUGAGGAUAUGCACCAAAAAAGGUUUUUCGGGUACGACAUGAGGAUCACCCAUGUAGAAGGCACGAAAA [Frodo Flailing 14 - Jieux - Exclusion 2] | 20.3 | 14.1
31 | AAAACUGGAGGAUAUACAUGAGGAUCACCCAUGUGUGGAUGAGCUGUGUCGGCAUCACGUAGAAGGCCACAAAA [Gilly Gone Silly 38 - Jieux - Exclusion 3] | 34.4 | 53.3
32 | AAAAGGAUAGGAUAUACAUGAGGAUCACCCAUGUGAAUAAAUAAAAGAAAUAAAGAAAGUAGAAGGGUCAAGAA | 25.8 | 22
33 | AAAAGGUGAGGAUAUAGGAAAAUAAAAGAAAAUAAAAGAAACUAGAAGGCACAUGAGGAUCACCCAUGUAAUAA [LROPPY Exclusion 4 - v03_deltaG=3.54 break up the As mixed] | 28.7 | 23.6
34 | AAAAUACAUGAGGAUCACCCAUGUGAGGAUAUGAGAAAGCAAAUAAAAUAAAGCAAACUCAGAAGGCACAAAAA [EX 1 May 25] | 39.5 | 50.2
35 | AAACAACAUGAGGAUCACCCAUGUUAGGAUAUGAACGAAAUAAAAUAAAAAUAAAAGUUCAGAAGGGACAAAAA [Mat - Exclusion 1 - Eli mod - D21] | 23.4 | 25.6
36 | AAACGUUGAGGAUAUACGAAAAAGGGUAGGUCAAAAAAAACACAUGAGGAUCACCCAUGUAGAAGGCAACGAAA [Similarities v.1 (13nt loop FMN+)] | 71.4 | 45.1
37 | AAAGAGUCAGGAUAUUCGUAUAGAGUAGCGCGACUCUAUACGAAGAAGGGACAUGAGGAUCACCCAUGUAAAAA [Ecls4-I] | 50.6 | 51.1
38 | AAAGGACGAGGAUAUACAUGAGGAUCACCCAUGUAAAAAACAUAAAAAAAGAACUUAUGUAGAAGGCGUCCAAA [69%, Moding Meechl, 3] | 52.7 | 399
39 | AAAGGACGAGGAUAUACAUGAGGAUCACCCAUGUAAAAAACAUAGUAAAAGAGCUUGUGUAGAAGGCGUCCAAA [Meechl Ex3 2 R2 v8] | 94.5 | 215
40 | AAAGGACGAGGAUAUACAUGAGGAUCACCCAUGUAAAAAACAUAGUCAAAGGGCUUGUGUAGAAGGCGUCCAAA [Meechl Ex3 2 R2 v11] | 50.2 | 229
